Key:
[1] = target: Phi-29 (exo-) T373Y exo- (substitutions not given), T373Y (Bacteriophage phi29) (UniProt P03680); conditions: tpol, unit not shown; unit assumed
[2] = target: Phi-29 (exo-) DNA polymerase exo- (substitutions not given) (Bacteriophage phi29) (UniProt P03680); conditions: tpol, unit not shown; unit assumed
[3] = target: Phi-29 (exo-) T373R exo- (substitutions not given), T373R (Bacteriophage phi29) (UniProt P03680); conditions: tpol, unit not shown; unit assumed
[4] = target: T1, Phi29 DNA polymerase (HRP-treated quantum dot conjugate) (Bacteriophage phi29, UniProt P03680 P03680:1-575); assay: FRET binding; 250 nM oligo; conditions: tags: His tag, label: 3' Alexa Fluor 647, hairpin with 5' overhang
T1 chain: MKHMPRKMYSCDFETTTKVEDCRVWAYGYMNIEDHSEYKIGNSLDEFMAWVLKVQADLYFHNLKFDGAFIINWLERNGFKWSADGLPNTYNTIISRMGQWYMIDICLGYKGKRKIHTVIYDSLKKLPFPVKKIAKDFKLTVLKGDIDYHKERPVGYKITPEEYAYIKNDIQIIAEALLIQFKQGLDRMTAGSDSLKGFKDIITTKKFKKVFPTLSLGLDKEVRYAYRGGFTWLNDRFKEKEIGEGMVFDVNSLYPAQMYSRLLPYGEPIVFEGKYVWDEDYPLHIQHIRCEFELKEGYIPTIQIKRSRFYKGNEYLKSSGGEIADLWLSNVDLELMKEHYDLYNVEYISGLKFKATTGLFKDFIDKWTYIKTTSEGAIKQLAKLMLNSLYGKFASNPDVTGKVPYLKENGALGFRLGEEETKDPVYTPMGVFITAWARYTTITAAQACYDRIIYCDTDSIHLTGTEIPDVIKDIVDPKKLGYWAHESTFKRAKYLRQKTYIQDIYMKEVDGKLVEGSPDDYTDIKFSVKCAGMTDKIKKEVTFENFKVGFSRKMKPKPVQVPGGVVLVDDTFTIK
Protocol: and 40 nM of the nanoparticle-polymerase conjugates in 50 mM Tris, 50 mM NaCl and 10 mM MgCl₂. The reaction was excited at 450 nm and emission (e.g., FRET) was detected as a ratio of intensities at 605/670 (dot emission/ALEXA FLUOR 647 emission).

[5] = target: T2, His-tagged F-linker Phi29 DNA polymerase D169A (exo-) (Bacteriophage phi29, UniProt P03680 SEQ:27-596); assay: FRET binding; BSA-treated dots; dATP present; conditions: tags: His tag and F-linker, linked to quantum dot; label: 3' Alexa Fluor 647; hairpin with 5' overhang
T2 chain: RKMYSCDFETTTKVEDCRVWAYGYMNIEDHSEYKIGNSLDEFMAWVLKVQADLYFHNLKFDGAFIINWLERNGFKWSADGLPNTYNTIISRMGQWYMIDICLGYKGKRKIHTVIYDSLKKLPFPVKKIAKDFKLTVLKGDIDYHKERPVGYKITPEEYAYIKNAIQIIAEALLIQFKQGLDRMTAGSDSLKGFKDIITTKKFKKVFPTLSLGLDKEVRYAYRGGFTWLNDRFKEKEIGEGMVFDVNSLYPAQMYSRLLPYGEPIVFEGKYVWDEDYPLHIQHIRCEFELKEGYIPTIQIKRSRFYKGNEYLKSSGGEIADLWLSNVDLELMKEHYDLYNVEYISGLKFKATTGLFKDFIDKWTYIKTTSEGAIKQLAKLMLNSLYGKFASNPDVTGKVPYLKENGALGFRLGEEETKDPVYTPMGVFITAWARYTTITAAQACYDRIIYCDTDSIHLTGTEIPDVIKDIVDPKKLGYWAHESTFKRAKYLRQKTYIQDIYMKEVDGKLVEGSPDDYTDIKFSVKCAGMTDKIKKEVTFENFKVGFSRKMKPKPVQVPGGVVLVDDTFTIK
Description: The binding reactions contained: 1× extension buffer, A1 nanoparticles-phi29 conjugates (or phi29 non-conjugated), oligonucleotide 229, and dATP. The binding reactions were serially diluted. […] The ratio of 605 nm/670 nm signals is depicted in FIG. 15C.

[6] = target: T3, HP1 Phi29 DNA polymerase D12A/D66A (Bacteriophage phi29, UniProt P03680 SEQ:26-600); assay: FRET binding; 50 mM Tris pH 7.5, 50 mM NaCl, 10 mM MgCl2, 0.5 mM MnCl2; oligo 199 or 192 used; conditions: tags: N-terminal His tag, linked to quantum dot; label: 3' Alexa Fluor 647; hairpin with 5' overhang
T3 chain: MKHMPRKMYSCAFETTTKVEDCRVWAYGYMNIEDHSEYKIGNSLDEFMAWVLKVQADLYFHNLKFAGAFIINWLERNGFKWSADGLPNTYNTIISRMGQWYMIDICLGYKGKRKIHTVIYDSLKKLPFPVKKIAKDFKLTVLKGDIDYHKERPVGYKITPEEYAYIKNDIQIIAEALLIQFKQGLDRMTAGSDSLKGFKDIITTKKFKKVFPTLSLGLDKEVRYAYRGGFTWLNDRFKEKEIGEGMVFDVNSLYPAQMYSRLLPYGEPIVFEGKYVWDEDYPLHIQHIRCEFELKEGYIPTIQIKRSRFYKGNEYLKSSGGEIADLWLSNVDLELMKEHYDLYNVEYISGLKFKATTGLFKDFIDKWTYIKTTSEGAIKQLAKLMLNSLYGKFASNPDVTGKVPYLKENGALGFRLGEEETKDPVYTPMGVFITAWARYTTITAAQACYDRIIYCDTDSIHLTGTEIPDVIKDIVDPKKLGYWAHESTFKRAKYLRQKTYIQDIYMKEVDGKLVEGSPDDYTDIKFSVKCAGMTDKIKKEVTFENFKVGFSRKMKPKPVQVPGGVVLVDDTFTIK

[7] = target: T2, His-tagged F-linker Phi29 DNA …; assay: FRET binding; Mg/Mn buffer; untreated, GST- or UDG/UGI-treated dots; conditions: tags: His tag and F-linker, linked to quantum dot; label: 3' Alexa Fluor 647; hairpin with 5' overhang
[8] = target: T4, PKA-tagged Phi29 DNA polymerase (Bacteriophage phi29, UniProt P03680 SEQ:30-599); assay: FRET binding; conditions: label: 3' Alexa Fluor 647-dC; hairpin with 5' overhang
T4 chain: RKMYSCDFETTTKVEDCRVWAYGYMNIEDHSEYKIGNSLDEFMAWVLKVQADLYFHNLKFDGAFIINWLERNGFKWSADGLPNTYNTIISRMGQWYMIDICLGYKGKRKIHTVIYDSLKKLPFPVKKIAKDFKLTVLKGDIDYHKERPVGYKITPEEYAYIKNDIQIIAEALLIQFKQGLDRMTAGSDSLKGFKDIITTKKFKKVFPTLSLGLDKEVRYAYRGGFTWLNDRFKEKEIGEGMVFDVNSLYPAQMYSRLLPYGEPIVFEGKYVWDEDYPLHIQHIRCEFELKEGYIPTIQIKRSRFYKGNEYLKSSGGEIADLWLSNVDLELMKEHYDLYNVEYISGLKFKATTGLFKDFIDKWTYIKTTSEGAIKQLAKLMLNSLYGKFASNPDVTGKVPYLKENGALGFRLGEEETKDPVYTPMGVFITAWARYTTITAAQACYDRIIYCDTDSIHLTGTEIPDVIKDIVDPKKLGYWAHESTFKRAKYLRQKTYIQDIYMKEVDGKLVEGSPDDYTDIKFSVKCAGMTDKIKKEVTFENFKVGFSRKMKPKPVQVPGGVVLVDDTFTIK
Protocol: 50 μl of the primer/template was transferred from each well of row two into 50 μl of the sample in each well of row one.
The microtiter plate was placed on the plate reader which was set to measure fluorescence at 605 nm and 670 nm with excitation at 450 nm. The results are depicted in FIG. 11. […] The ratio of 605 nm/670 nm signals is depicted in FIG. 11C.

CGTTAACCGCCCGCTCCTTTGCAAC / GTTGCAAAGGAGCGGGCG [stopped-flow template/primer]
activity [1]: 14 ms
activity [2]: 11 ms
activity [3]: 15 ms

TTATCTTTGTGGGTGACAGGTTTTTCCTGTCACC (structured_DNA) [AF647 hairpin (Example 15)]
binding result [4]: binds

TTTTTGCGGGTGACAGGTTTTTCCTGTCACCC (structured_DNA) [oligo 229]
binding result [5]: binds

TTATCTTTGTGGGTGACAGGTTTTTCCTGTCACCC (structured_DNA) [oligo 199]
binding result [6]: binds
binding result [7]: binds

TTATCTTTGTGGGTGACAGGTTTTTCCTGTCACCC (structured_DNA) [JX338]
binding result [8]: binds
